# B1: 1987-C05 HC w/hSP34 LC3: HC of lead antibody 1987-C05 co-expressed with the LC of anti-CD3 antibody "hSP34-LC3" (antibody, V domains shown)
# VH: EVQLVESGGGLVQPGGSLRLSCAASGFNISDYDIHWVRQAPGKGLEWVGGIDPDDGSTDYADSVKGRFTISADTSKNTAYLQMNSLRAEDTAVYYCARDYGVFDYWGQGTLVTVSS
# VL: QTVVTQEPSLTVSPGGTVTLTCGSSTGAVTSGYYPNWFQQKPGQAPRGLIGGTKFLAPGTPARFSGSLLGGKAALTLSGVQPEDEAEYYCALWYSNRWVFGGGTQLTVTG
# B2: 1987-C05 HC w/hOKT3 LC1: HC of lead antibody 1987-C05 co-expressed with the LC of anti-CD3 antibody "hOKT3-LC1" (antibody, V domains shown)
# VH: EVQLVESGGGLVQPGGSLRLSCAASGFNISDYDIHWVRQAPGKGLEWVGGIDPDDGSTDYADSVKGRFTISADTSKNTAYLQMNSLRAEDTAVYYCARDYGVFDYWGQGTLVTVSS
# VL: DIQMTQSPSSLSASVGDRVTITCSASSSVSYMNWYQQKPGKAPKRLIYDTSKLASGVPSRFSGSGSGTEYTLTISSLQPEDFATYYCQQWSSNPFTFGQGTKLEIK
# B3: 1987-C05 HC w/hUCHT1 LC3: HC of lead antibody 1987-C05 co-expressed with the LC of anti-CD3 antibody "hUCHT1-LC3" (antibody, V domains shown)
# VH: EVQLVESGGGLVQPGGSLRLSCAASGFNISDYDIHWVRQAPGKGLEWVGGIDPDDGSTDYADSVKGRFTISADTSKNTAYLQMNSLRAEDTAVYYCARDYGVFDYWGQGTLVTVSS
# VL: DIQMTQSPSTLSASVGDRVTITCRASQDIRNYLNWYQQKPGKAPKLLIYYTSRLHSGVPSRFSGSGSGTEYTLTISSLQPDDFATYYCQQGNTLPWTFGGGTKVEIK
# Molecular target: T1, hROR1 (ROR1-extracellular domain) (Homo sapiens, UniProt Q01973)
# T1 construct: the ROR1-frizzled domain (hROR1-Fz) or the ROR1-extracellular domain (hROR1); purchased Acro Biosystems
# Experiment: Biacore off-rate and kinetic analysis, hROR1 extracellular domain
# Type: binding
# Settings: for KD (SPR binding kinetics): hROR1, 1987-C05 variants
# Experimental: Anti-Fc polyclonal antibodies were immobilized onto a CMS chip (GE Life Sciences) using amine coupling chemistry (from Amine Coupling Kit, GE Life Sciences). The immobilization steps were carried out at a flow rate of 25 μL/min in 1×HBS-EP+buffer (GE Life Sciences; 10× Stock diluted before use). The sensor surfaces were activated for 7 min with a mixture of NHS (0.05 M) and EDC (0.2 M). The Anti-Fc antibodies were injected over all 4 flow cells at a concentration of 25 ug/ml in 10 mM sodium acetate, pH 4.5, for 7 min. Ethanolamine (1 M, pH 8.5) was injected for 7 min to block any remaining activated groups. An average of 12,000 response units (RU) of capture antibody was immobilized on each flow cell.
# Off-rate and kinetic binding experiments were performed at 25° C. using 1×HBS-EP+buffer. Test and control antibodies were injected over the anti-Fc surface at concentrations of 5-10 μg/mL for 12 seconds at a flow rate of 10 μL/min on flow cells 2, 3 and 4, followed by a buffer wash for 30 seconds at the same flow rate. Kinetic characterization of antibody samples was carried out with a range of antigen concentrations from 1-100 nM and 1 injection of 0 nM antigen (for example, 100, 50, 25, 6.25, 1.56 and 0 nM). After capturing ligand (antibody) on the anti-Fc surface, the analyte (hROR1, Fz or Kr domains, Acro Biosystems, Delaware) was bound for 180 seconds, followed by a 600 second dissociation phase at a flow rate of 50 μL/min. Between each ligand capture and analyte binding cycle, regeneration was carried out using 2 injections of 10 mM Glycine pH 2.0 for 30 seconds at 30 μL/min, followed by a 30 second buffer wash step.
# The data was fit with the Biacore T200 Evaluation software, using a 1-1 Langmuir binding model. KD (affinity, nM) was determined as a ratio of the kinetic rate constants calculated from the fits of the association and dissociation phases.
# For anti-CD3-LC-containing IgGs that had detectable ROR1-binding in ELISA (1944-A07 and 1987-C05 variants), those antibodies were further tested for binding by surface plasmon resonance (SPR). Binding kinetics were assessed to the ROR1-frizzled domain (hROR1-Fz) or the ROR1-extracellular domain (hROR1) for 1944-A07 and 1987-C05 variants, respectively. Briefly, anti-ROR1 antibodies were captured via anti-human Fc polyclonal antibodies immobilized to a CM5 chip, and ROR1 recombinant proteins were flowed across the surface to assess binding kinetics. hROR1 or hROR1-Fz domain (Acro Biosystems, Delaware) binding was tested at 100, 50, 25, 6.25, 1.5625 nM. The data was fit with the Biacore™ T200 Evaluation software, using a 1-1 Langmuir binding model. KD (affinity, nM) was determined as a ratio of the kinetic rate constants calculated from the fits of the association and dissociation phases.
# [1] = Table 7, sample ROR1 ECD, 1987-C05 HC with different LCs
Molecule,KD [1],KD (SPR binding kinetics),ka1 [1],kd1 [1]
B1,Not detected,no detectable binding,–,–
B2,Not detected,no detectable binding,–,–
B3,–,–,566000 M⁻¹ s⁻¹,0.000645 s⁻¹

# — US12144869B2, “Anti-ROR1 antibody conjugates, compositions comprising anti ROR1 antibody conjugates, and methods of making and using anti-ROR1 antibody conjugates” (Sutro Biopharma, Inc., priority 2022, dated 2024)
